Patent US20060210655A1, “Bioactive compositions, natural methods of producing them and computational methods for designing natural production processes” (priority 2004, published 2006)
Each block holds one molecule with its values, some of them ahead of it.

How the values were obtained:
Y2-GPCR = target: T1, Y2-GPCR (Homo sapiens, UniProt P49146); experiment: competitive binding assay against PYY22-36 on Y2-GPCR
T1 sequence (P49146 1-381): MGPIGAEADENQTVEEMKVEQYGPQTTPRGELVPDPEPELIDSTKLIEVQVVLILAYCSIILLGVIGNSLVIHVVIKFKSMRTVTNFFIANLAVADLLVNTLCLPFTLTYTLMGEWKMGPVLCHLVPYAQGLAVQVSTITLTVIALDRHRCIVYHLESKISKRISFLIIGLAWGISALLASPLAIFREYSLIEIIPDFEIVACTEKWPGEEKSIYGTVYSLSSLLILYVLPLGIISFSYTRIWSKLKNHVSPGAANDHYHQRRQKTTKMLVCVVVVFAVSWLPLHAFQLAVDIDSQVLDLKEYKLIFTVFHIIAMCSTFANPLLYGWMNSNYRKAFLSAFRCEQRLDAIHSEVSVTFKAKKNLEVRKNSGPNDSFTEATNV
Description: The peptides derived from the proteins AtRGP2, OsRGP1 and OsBiP were synthesized in 5 mg quantities at and purified to a purity of above about 90%. The peptides were tested in a competitive binding assay against PYY^22-36 for binding to the GPCR receptor.
In-vitro receptor-based screening of receptor subtypes Y1, Y2, and Y3 was performed according to protocols known in the art. (Munoz et al., Mol. Cell. Endocrinol. 107, 77 (1995), Fuhlendorf et al., PNAS 87, 182 (1990)) Screening of OsBiP, ZMRGP1 and AtRGP1 was conducted on Y2-GPCR as described above using known methods and activity was measured as the percentage of inhibition of binding of the endogenous ligand PYY^22-36 sequence. The PYY^22-36 sequence was used as a positive control. Of the peptides tested, the one derived from AtRGP1 protein was able to inhibit binding of PYY^22-36 by 20-40% when 10 μM concentration of both the PYY^22-36 and […] peptide were used in the binding assay. […] In vivo tissue-based screening on cultures of rat colon cells can be carried out according to known protocols, such as described in Dumont et al., Eur. J. Pharmacol. 238, 37 (1993).

CCK-B receptor = target: T2, CCK-B receptor (Homo sapiens, UniProt P32239); experiment: competitive binding assay against CCK-8 for binding to the CCK-B GPCR receptor; conditions: for inhibition of CCK-8 binding to the CCK-B receptor: peptides purified from trypsin hydrolysate, 10 μM; for inhibition of binding of the ligand CCK-8 to CCK-B receptor: synthetic peptides, 10 μM concentration
T2 sequence (P32239 1-447): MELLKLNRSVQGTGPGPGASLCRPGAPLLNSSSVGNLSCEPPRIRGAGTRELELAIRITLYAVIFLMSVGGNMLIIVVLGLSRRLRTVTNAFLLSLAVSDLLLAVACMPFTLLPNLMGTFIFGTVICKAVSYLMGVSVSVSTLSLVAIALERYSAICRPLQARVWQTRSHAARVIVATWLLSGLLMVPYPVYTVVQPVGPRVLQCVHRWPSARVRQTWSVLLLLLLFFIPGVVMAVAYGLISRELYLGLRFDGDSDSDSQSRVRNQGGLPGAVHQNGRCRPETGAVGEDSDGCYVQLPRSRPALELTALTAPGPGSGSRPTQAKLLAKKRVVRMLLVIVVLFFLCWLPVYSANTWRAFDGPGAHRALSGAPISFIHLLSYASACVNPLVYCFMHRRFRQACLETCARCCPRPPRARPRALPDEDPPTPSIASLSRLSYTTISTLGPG
Description: Oryzacystatin is a cystein proteinase inhibitor protein. […] The peptides […], PWMDFK and […] were synthesized in 5 mg quantities and purified to a purity of above about 90%. The peptides were tested in a competitive binding assay against CCK-8 for binding to the CCK-B GPCR receptor.
In-vitro receptor-based screening of receptor subtypes CCK-A and CCK-B was performed according to protocols known in the art. The binding activity of peptides […], PWMDFK and […] on CCK-A and CCK-B GPCR was measured as the percentage of inhibition of binding of the endogenous ligand CCK-8 sequence. The CCK-8 sequence was used as a positive control in this assay. […] None of the peptides tested activated CCK-A receptor at concentrations as high as 10 μM, probably due to the lack of sulfonation, a chemical modification required for agonizing the CCK-A receptor.
Hydrolysates were generated from the recombinantly expressed and purified oryzacystatin protein which was isolated from Oryza sativa. Trypsin was used to hydrolyze 10 mg of each sample using standard conditions. […] Again the hydrolysate and the two purified peptides were submitted to receptor-based screening. The hydrolysate itself inhibited CCK-8 binding to the CCK-B receptor by 21% at a 100 μM hydrolysate concentration, while the purified peptides, […] and PWMDFK, inhibited CCK-8 binding by 16%, and 14% at a 10 μM concentrations.
A final optimization of the hydrolysis by the combined consecutive action of trypsin and limited carboxypeptidase digestion was carried out with the goal of obtaining the peptides […] and PWMDF, resulting from the removal of the C-terminal lysine residue.

[1] = obese or nonobese subjects, cited from earlier work
[2] = target: T3, Y2 G-protein-coupled receptor; experiment: competitive receptor binding assay on Y2-GPCR against PYY22-36, both peptides at 10 µM
T3 sequence (P49146 whole entry, species assumed, looked up): T1 sequence (P49146 1-381)

[3] = target: T4, CCK-B GPCR receptor (Homo sapiens (Human)) (UniProt P32239); experiment: competitive receptor binding assay against CCK-8 on CCK-B receptor, synthetic peptide at 10 µM
T4 sequence: T2 sequence (P32239 1-447)

binding to the Y2 receptor (Y2-GPCR; qualitative): shown to bind the Y2 receptor
Molecule: FDGVDFSEPLTRARF (listed as Oryza sativa) [OsBIP]

inhibition of CCK-8 binding to the CCK-B receptor (CCK-B receptor): 14% | inhibition of binding of the ligand CCK-8 to CCK-B receptor (CCK-B receptor): 16%
Molecule: PWMDFK (listed as Oryza sativa) [Oryza sativa oryzacystatin fragment, trypsin]

inhibition of binding of the ligand CCK-8 to CCK-B receptor (CCK-B receptor): 5%
Molecule: PWMDFKELQEFK (listed as Oryza sativa) [Oryza sativa oryzacystatin fragment, trypsin]

Molecule: PYY: natural hormone produced by endocrine L-cells in the gut; agonist of Y2 receptors
cumulative 24-hour caloric intake ([1]; after 90-minute intravenous infusion): significant decrease | reduction of caloric intake ([1]; two hours after a 90-minute intravenous infusion): 30%

inhibition of CCK-8 binding to the CCK-B receptor (CCK-B receptor): 16% | inhibition of binding of the ligand CCK-8 to CCK-B receptor (CCK-B receptor): 27%
Molecule: VWEKPWMDFK (listed as Oryza sativa) [Oryza sativa oryzacystatin fragment, trypsin]

percentage of inhibition of binding of PYY22-36 (Y2-GPCR; Y2-GPCR, 10 μM concentration of both PYY22-36 and peptide): 20-40%
Molecule: YSCRYFGYLVSKKKY (listed as Arabidopsis thaliana) [AtRGP1, peptide derived from Arabidopsis thaliana amylogenin protein RGP]

% inhibition of binding of PYY22-36 [2]: 20 to 40%
Molecule: YSCRYFGYLVSKKKY [AtRGP2 peptide fragment]

% inhibition of binding of CCK-8 [3]: 5%
Molecule: PWMDFKELQEFK [Oryza sativa oryzacystatin hydrolyzed with trypsin - synthetic peptide 3]
